Experimental data published in patent publication US20150167106 (NEC Solution Innovators, Ltd., published 2015).

What was measured:
[1] = biological target: BSA (bovine serum albumin) (Bos taurus, UniProt P02769 P02769:25-607); assay: SPR; specificity control; settings: tags: Nippon Gene
[2] = biological target: MIF (macrophage migration inhibitory factor) (UniProt P14174 P14174:2-115); assay: SPR; specificity control; settings: tags: His tag; ATGen
[3] = biological target: HA1Aichi (hemagglutinin HA1) (Influenza A virus A/Aichi/2/1968, UniProt P03437 SEQ:17-345); assay: SPR; settings: tags: Sino Biological #11707-V08H1
[4] = biological target: T1, HA1Aichi (hemagglutinin HA1) (Influenza A virus A/Aichi/2/1968, UniProt P03437 SEQ:17-345); assay: SPR; negative control; settings: tags: Sino Biological #11707-V08H1
[5] = biological target: T1, HA1Aichi (hemagglutinin HA1); assay: SPR; settings: tags: Sino Biological #11707-V08H1; remark: listed apart in the source

BSA (bovine serum albumin), sequence (P02769 25-607, one chain of several): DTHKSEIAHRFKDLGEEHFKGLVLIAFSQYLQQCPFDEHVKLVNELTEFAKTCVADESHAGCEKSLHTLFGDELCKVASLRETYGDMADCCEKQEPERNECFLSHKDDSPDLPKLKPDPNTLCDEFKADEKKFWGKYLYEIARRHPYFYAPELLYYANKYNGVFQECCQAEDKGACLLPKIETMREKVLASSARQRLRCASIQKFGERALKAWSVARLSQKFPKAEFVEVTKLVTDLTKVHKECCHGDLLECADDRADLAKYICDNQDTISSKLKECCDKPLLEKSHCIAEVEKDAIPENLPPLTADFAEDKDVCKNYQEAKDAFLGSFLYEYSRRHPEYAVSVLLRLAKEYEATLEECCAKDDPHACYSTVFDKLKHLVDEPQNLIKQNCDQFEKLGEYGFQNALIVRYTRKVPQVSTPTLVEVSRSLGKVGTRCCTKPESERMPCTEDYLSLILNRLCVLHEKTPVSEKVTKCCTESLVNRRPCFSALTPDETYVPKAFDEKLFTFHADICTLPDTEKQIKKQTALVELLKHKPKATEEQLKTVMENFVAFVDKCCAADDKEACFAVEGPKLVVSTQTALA
MIF (macrophage migration inhibitory factor), sequence (P14174 2-115, one chain of several): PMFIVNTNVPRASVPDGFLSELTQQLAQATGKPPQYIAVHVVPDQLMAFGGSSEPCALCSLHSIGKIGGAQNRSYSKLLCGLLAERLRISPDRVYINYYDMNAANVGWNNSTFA

B1: RHA0002_s33 (ssDNA)
DNA: GTGTTTGATGGTTTGGTCTGGTTGGCTTAACAC
modifications: 3' poly(dA)24 tail for SPR
binding result [1]: no binding | binding result [2]: no binding

B2: RHA0002_s33 (ssDNA)
DNA: GTGTTTGATGGTTTGGTCTGGTTGGCTTAACAC
binding result [3]: binds

B3: RHA0385_s28 (ssDNA)
DNA: TTGGGGTTATTTTGGGAGGGCGGGGGTT
binding result [3]: binds

B4: RHA0127 (ssDNA)
DNA: CCTGCACCCAGTGTCCCTGGGTCGGCTAATTTGGCATTTGGGGTGGTTTGGGGGGGGGACGGAGAGGAGGACGG
modifications: 3' poly(dA)24 tail for SPR
binding result [1]: no binding | binding result [2]: no binding

B5: Control (ssDNA)
DNA: CGGCGTTTGGTTGGCGTGAACCATTTTTAAGTT
modifications: 3' poly(dA)24 tail for SPR; 3' biotin for ELAA
binding result [4]: no binding

B6: RHA1634_s60 (ssDNA)
DNA: GGGCACCCTCTCGCTGTACGGTTGATGCACGTTTCTTTCTCTTTATATTGCTGGGTGCCC
binding result [3]: binds

B7: RHA0006 (ssDNA)
DNA: GGTTAGCCCGTCCCGAGATAACTCGGTGTGTTGGGTTTGGGTTGGGTTGGGTCTTAACACACGGCGGCTGTAG
modifications: 3' poly(dA)24 tail for SPR
binding result [1]: no binding | binding result [2]: no binding

B8: RHA0002 (ssDNA)
DNA: GGTTAGCCCGTCCCGAGATAACTCGGGGTGTTTGATGGTTTGGTCTGGTTGGCTTAACACACGGCGGCTGTAG
modifications: 3' poly(dA)24 tail for SPR
binding result [1]: no binding | binding result [2]: no binding

B9: RHA0111 (ssDNA)
DNA: CCTGCACCCAGTGTCCCGTGCTCCGGGGGTTGGGCGTGGTGGGTCTGTCGGGTTTCGGACGGAGAGGAGGACGG
modifications: 3' poly(dA)24 tail for SPR
binding result [1]: no binding | binding result [2]: no binding

B10: RHA0471_s51 (ssDNA)
DNA: TCCTCGTTGGGGGTGGTGGTGGGTTTCGGTTCATGGGTGGGACGGAGAGGA
binding result [3]: binds

B11: RHA0006_s19 (ssDNA)
DNA: GGGTTTGGGTTGGGTTGGG
modifications: 3' poly(dA)24 tail for SPR
binding result [1]: no binding | binding result [2]: no binding

B12: RHA1635_s62 (ssDNA)
DNA: GGGGCCCACCCTCTCGCTGGCGGCTCTGTTCTGTTCTCGTCTCCTTGATTTCTGTGGGCCCC
binding result [3]: binds

B13: RHA0006_s19_d5 (ssDNA)
DNA: GGGTTTGGGTTGGGTTGGGTTTTTGGGTTTGGGTTGGGTTGGG
modifications: 3' poly(dA)24 tail for SPR; 3' biotin (detection) or 3' amino (capture) for ELAA
binding result [5]: binds
